Test results from US20210355194A1 (TWIST BIOSCIENCE, published 2021).
Changes are numbered by the printed parent chain.

B1: SARS-CoV-2 variant 1-4 (antibody, V domains shown)
VH: EVQLLESGGGLVQPGGSLRLSCAASGFTFSSQAMSWVRQAPGKGLEWVSAISGSGGGTYYADSVKGRFTISRDNSKNTLYLQMNSLRAEDTAVYYCAKDRRFGEFDPWGQGTLVTVSS
VL: QSALTQPASVSGSPGQSITISCTGTSSDVGTYNLVSWYQQHPGKAPKLMIYEGSQRPSGVSNRFSGSKSGNTASLTISGLQAEDEADYYCCSYAGSSSFVVFGGGTKLTVL
B2: SARS-CoV-2 variant 1-3 (antibody, V domains shown)
VH: B1 VH
VL: B1 VL with T25I, T31S, S54T, Q55K
B3: SARS-CoV-2 variant 1-28 (antibody, V domains shown)
VH: EVQLLESGGGLVQPGGSLRLSCAASGFTFSSYGMSWVRQAPGKGLEWVSAISGSGGGTYYADSVKGRFTISRDNSKNTLYLQMNSLRAEDTAVYYCASSSSWQFDYWGQGTLVTVSS
VL: B1 VL with D28G, T31S, S98T, F99H, V100Y
B4: SARS-CoV-2 variant 1-31 (antibody, V domains shown)
VH: EVQLLESGGGLVQPGGSLRLSCAASGFTFSSYAMNWVRQAPGKGLEWVSAISGSGGSTFYADSVKGRFTISRDNSKNTLYLQMNSLRAEDTAVYYCTRPPYGDYGDYWGQGTLVTVSS
VL: B1 VL with T31K, S97R, S98T, F99P
B5: SARS-CoV-2 variant 1-5 (antibody, V domains shown)
VH: B1 VH
VL: B1 VL with D28G, T31S, G53A, Q55K, S97Y, S98T, V100A
B6: SARS-CoV-2 variant 1-30 (antibody, V domains shown)
VH: B4 VH with N35T
VL: B1 VL with S27R, T31S, S54T, Q55K, S97R, S98T, F99P
B7: SARS-CoV-2 variant 1-32 (antibody, V domains shown)
VH: B4 VH with N35Y
VL: QSALTQPASVSGSPGQSITISCTGTSSDVGGYNLVSWYQQHPGKAPKLMIYEGNKRPSGVSNRFSGSKSGNTASLTISGLQAEDEADYYCCSYAGSSTFPVVFGGGTKLTVL
B8: SARS-CoV-2 variant 1-49 (antibody, V domains shown)
VH: EVQLLESGGGLVQPGGSLRLSCAASGFTFSSYAMYWVRQAPGKGLEWVSAISGSAGSTYYADSVKGRFTISRDNSKNTLYLQMNSLRAEDTAVYYCARDTNDFWGQGTLVTVSS
VL: QSALTQPASVSGSPGQSITISCTGTSSDIGSYNLVSWYQQHPGKAPKLMIYEGTKRPSGVSNRFSGSKSGNTASLTISGLQAEDEADYYCCSYAGSRTYVFGGGTKLTVL
B9: variant 5-1 (Fc fusion)
VHH: EVQLVESGGGLVQPGGSLRLSCAASGGTFSSIGMGWFRQAPGKEREFVAAISWDGGATAYADSVKGRFTISADNSKNTAYLQMNSLKPEDTAVYYCAKEDVGKPFDWGQGTLVTVSS
B10: variant 6-55 (Fc fusion)
VHH: EVQLVESGGGLVQPGGSLRLSCAASGFTMSSSWMGWFRQAPGKEREFVARITSGGSTGYADSVKGRFTISADNSKNTAYLQMNSLKPEDTAVYYCASVDGYFDYWGQGTLVTVSS
B11: variant 6-20 (Fc fusion)
VHH: EVQLVESGGGLVQPGGSLRLSCAASGSTLPYHAMGWFRQAPGKEREFVAAITWNGASTSYADSVKGRFTISADNSKNTAYLQMNSLKPEDTAVYYCARDRYYDTSASYFESETWGQGTLVTVSS
B12: variant 6-3 (Fc fusion)
VHH: EVQLVESGGGLVQPGGSLRLSCAASGFTFSPSWMGWFRQAPGKEREFVATINEYGGRNYADSVKGRFTISADNSKNTAYLQMNSLKPEDTAVYYCARVDRDFDYWGQGTLVTVSS
B13: variant 6-26 (Fc fusion)
VHH: B12 VHH with F27D, P31T, E53T, Y54G, R57T, D99T, R100T, D101S
B14: variant 6-76 (Fc fusion)
VHH: EVQLVESGGGLVQPGGSLRLSCAASGLAFDFDGMGWFRQAPGKEREGVAAINSGGSTYYADSVKGRFTISADNSKNTAYLQMNSLKPEDTAVYYCARFFRAHDYWGQGTLVTVSS
B15: variant 6-85 (Fc fusion)
VHH: EVQLVESGGGLVQPGGSLRLSCAASGGTFSVFAMGWFRQAPGKEREFVSAINWSGGSLLYADSVKGRFTISADNSKNTAYLQMNSLKPEDTAVYYCALFGDFDYWGQGTLVTVSS
B16: variant 6-63 (Fc fusion)
VHH: EVQLVESGGGLVQPGGSLRLSCAASGQTFNMGWFRQAPGKEREFVAAIGSGGSTSYADSVKGRFTISADNSKNTAYLQMNSLKPEDTAVYYCWRLGNDYFDYWGQGTLVTVSS
notes: also called VHH nanobody 6-63
B17: variant 6-73 (Fc fusion)
VHH: EVQLVESGGGLVQPGGSLRLSCAASGHTFSGYAMGWFRQAPGKEREFVAVITREGSTYYADSVKGRFTISADNSKNTAYLQMNSLKPEDTAVYYCARLGGEGFDYWGQGTLVTVSS
B18: variant 6-78 (Fc fusion)
VHH: EVQLVESGGGLVQPGGSLRLSCAASGRTYDAMGWFRQAPGKEREFVASVTSGGYTHYADSVKGRFTISADNSKNTAYLQMNSLKPEDTAVYYCAKFGRKIVGATELDYWGQGTLVTVSS
B19: variant 6-60 (Fc fusion)
VHH: EVQLVESGGGLVQPGGSLRLSCAASGDTYGSYWMGWFRQAPGKEREFVATISQSGAATAYADSVKGRFTISADNSKNTAYLQMNSLKPEDTAVYYCAGLLRYSGTYYDAFDVWGQGTLVTVSS
B20: variant 5-37 (Fc fusion)
VHH: EVQLVESGGGLVQPGGSLRLSCAASGSTFSINAMGWFRQAPGKEREFVGGISRSGATTNYADSVKGRFTISADNSKNTAYLQMNSLKPEDTAVYYCAADGVPEYSDYASGPVWGQGTLVTVSS

Biological target: T1, S1 Fc fusion protein (SARS-CoV-2, UniProt P0DTC2 14-685)
Experiment: phage ELISA

Binder	ELISA fold over background
B1	0.9 fold
B2	1.5 fold
B3	1.1 fold
B4	15.7 fold
B5	1.2 fold
B6	5.6 fold
B7	4 fold
B8	0.8 fold

Biological target: T2, COVID S1 RBM Fc fusion (Antigen 2) (SARS-CoV-2, UniProt P0DTC2 437-508)
Experiment: phage ELISA

Binder	ELISA fold over background
B1	1.1 fold
B2	1.5 fold
B3	1.2 fold
B4	1.2 fold
B5	1.4 fold
B6	1.4 fold
B7	1.1 fold
B8	0.8 fold

Biological target: T1, S1 Fc fusion protein
Experiment: phage ELISA
Remark: another data set of the same source

Binder	ELISA fold over background
B1	0.9 fold
B2	1.5 fold
B3	1.1 fold
B4	15.7 fold
B5	1.2 fold
B6	5.6 fold
B7	4 fold
B8	0.8 fold

Biological target: T2, COVID S1 RBM Fc fusion (Antigen 2)
Experiment: phage ELISA
Remark: another data set of the same source

Binder	ELISA fold over background
B1	1.1 fold
B2	1.5 fold
B3	1.2 fold
B4	1.2 fold
B5	1.4 fold
B6	1.4 fold
B7	1.1 fold
B8	0.8 fold

Biological target: T3, SARS-CoV-2 spike on live SARS-CoV-2 virus (SARS-CoV-2, UniProt P0DTC2 14-1273)
Experiment: cell-based or functional assay

Binder	EC50
B9	0.1 µg/mL
B10	0.21 µg/mL
B11	5.03 µg/mL
B12	0.06 µg/mL
B13	2.97 µg/mL
B14	1.08 µg/mL
B15	0.84 µg/mL
B16	0.06 µg/mL
B17	1.46 µg/mL
B18	8.26 µg/mL
B19	0.15 µg/mL

Biological target: SARS-CoV-2 spike on VSV-pseudotype SARS-CoV-2 (SARS-CoV-2, UniProt P0DTC2 14-1273)
Experiment: cell-based or functional assay

Binder	NC50
B9	0.1 µg/mL
B10	0.21 µg/mL
B11	5.03 µg/mL
B12	0.06 µg/mL
B13	2.97 µg/mL
B14	1.08 µg/mL
B15	0.84 µg/mL
B16	0.06 µg/mL
B17	1.46 µg/mL
B18	8.26 µg/mL
B19	0.15 µg/mL

Biological target: T3, SARS-CoV-2 spike on live SARS-CoV-2 …
Experiment: cell-based or functional assay
Remark: another data set of the same source

Binder	PRNT90
B9	15.6 ng/mL
B10	62.5 ng/mL
B11	15.6 ng/mL
B12	< 0.98 ng/mL
B13	62.5 ng/mL
B14	3.9 ng/mL
B15	62.5 ng/mL
B16	3.9 ng/mL
B17	250 ng/mL
B18	250 ng/mL
B19	< 0.98 ng/mL

Biological target: T3, SARS-CoV-2 spike on live SARS-CoV-2 …
Experiment: cell-based or functional assay
Remark: another data set of the same source

Binder	EC80
B9	0.811 µg/mL
B10	0.445 µg/mL
B11	2.31 µg/mL
B12	0.115 µg/mL
B13	3.61 µg/mL
B20	12.4 µg/mL
B14	0.426 µg/mL
B15	1.06 µg/mL
B16	0.0579 µg/mL
B17	2.02 µg/mL
B18	13.8 µg/mL
B19	0.237 µg/mL
